Experimental findings from a protein production outcome set (Wang et al. 2014) are described below.

The series can be described thus: label from the status in PepcDB records.
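Further: failed if final PepcDB status was selected cloned or expressed and not failed if soluble or beyond.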

In the case of “MAKSPKKSKSRLWFLVHSWLALPIWFFVLIVCFTGMLAVVSQEIVWLADPAARANKPDADTERMSFQQVLEALNKAEPDMVVERLSQPDGSHFAVKANVTLPDGTSPTLYVNPYTGTIQGRTPDFNFEAFTRALHGWWLVPFTNGFSWGWYLVSLLGLPMLASLVTGLVVYKKFWKGFFKPVRTGHGSRIFWGDLHRLSGVWSIWFIAVISITGTWFLIQAILSDNHITISSRPIVPVIAREEVPQTPDGSPASRIDLDEAARLAGLAIPGLEVTSITLPATAYSHVTLSGPGWYPLMFQSASVNPYTRNVDSQFLISDRSALEFVTESMRPLHTGDFGGLPIKLVWFFFGLILTLMVLSGLLIWTKRTAQATAAALKRSERAPRAAHSETTVEIHS”, the protein production result is recorded as “failed”. On to “MAKSQIEPGVPITLQELYPSSLFYKEGVSLRVTAMLRGYSVETAIGVIEDGGRSLKINTQNIRDVSFRVGSIYQFIGELHIEQPNNEARTGRNVDGIDMNLYRKTIELLRQFLKEEDNSNMVE”, for which the protein production entry was “failed”. Consider “MAKVKVLFVRNLANTVTEEILEKAFSQFGKLERVKKLKDYAFIHFDERDGAVKAMEEMNGKDLEGENIEIVFAKPPDQKRKERKAQRQAA”, for which the protein production entry was “not failed”.

Take “MAKVLVLNASYEPLNITHWQRAVVLLLKDKAEALENNGKLIYANFPLPSVIRLRQYIKVPYKEIPLTRRNVLERDRHTCQYCNYKGEQLTLDHVIPRSRGGGDSWENLVTACVRCNIKKGNRTPREAQMSLNYTPRRPYSSLLFEIIKHTRNDRNHEWRKYVIGILEHHHHHH”: the protein production entry was “failed”. As to “MAKVNITRDLIRRQIKERGALSFERRYHVTDPFIRRLGLEAELQGHSGCVNCLEWNEKGDLLASGSDDQHTIVWDPLHHKKLLSMHTGHTANIFSVKFLPHAGDRILITGAADSKVHVHDLTVKETIHMFGDHTNRVKRIATAPMWPNTFWSAAEDGLIRQYDLRENSKHSEVLIDLTEYCGQLVEAKCLTVNPQDNNCLAVGASGPFVRLYDIRMIHNHRKSMKQSPSAGVHTFCDRQKPLPDGAAQYYVAGHLPVKLPDYNNRLRVLVATYVTFSPNGTELLVNMGGEQVYLFDLTYKQRPYTFLLPRKCHSSGEVQNGKMSTNGVSNGVSNGLHLHSNGFRLPESRGHVSPQVELPPYLERVKQQANEAFACQQWTQAIQLYSKAVQRAPHNAMLYGNRAAAYMKRKWDGDHYDALRDCLKAISLNPCHLKAHFRLARCLFELKYVAEALECLDDFKGKFPEQAHSSACDALGRDITAALFSKNDGEEKKGPGGGAPVRLRSTSRKDSISEDEMVLRERSYDYQFRYCGHCNTTTDIKEANFFGSNAQYIVSGSDDGSFFIWEKETTNLVRVLQGDESIVNCLQPHPSYCFLATSGIDPVVRLWNPRPESEDLTGRVVEDMEGASQANQRRMNADPLEVMLLNMGYRITGLSSGGAGASDDEDSSEGQVQCRPS”, the protein production result is “failed”. Consider “MAKVTERYDVTWEEMRDKMRKWREENSRNSEQIMEVGEELINDYASKLGDDIWIIYEQVMIAALDYGRDDLALFCLQELRRQFPGSHRVKRLTGMRFEAMERYDDAIQLYDRILQEDPTNTAARKRKIAIRKAQGKTVEAIRELNEYLEQFVGDQEAWHELAELYINEHDYAKAAFCLEELMMTNPHNHLYCQQYAEVKYTQGGLENLELSRKYFAQALKLNNRNMRALFGLYMSASHIASNPKASAKMKKDNIKYASWAANQINRAYQFAGRSKKETKYSLKAVEDMLETLQITQS”, for which the protein production entry was “failed”. “MALARANSPQEALLWALNDLEENSFKTLKFHLRDVTQFHLARGELESLSQVDLASKLISMYGAQEAVRVVSRSLLAMNLMELVDYLNQVCLNDYREIYREHV”: the protein production result is reported as “not failed”. Turning to “MALDLNDVALFVQVVRSGSFAQAARHLGMPSNTVSRKVQQLEIQLGTRLLHRSTRKLVLTQAGEDFHERCVGAVDGLMDAAEQLVSGREEPGGRLRIAAMADFFDFFSMEWVADFLAEYPRVQLEFVLSDERADLIADRLDIAFRGGPLQDSGYVGRQLIEEGHDTMVASPAYIAAHGMPDSLQSLHGHYCVSTAHPGGSTVWRLLGPDAKMHEVQMASRFNANTAQALRKATLAGLGIALLPATLIRSDLRDGRLVPVLTQYQRTSHGLHVLYPSRQHLPPAVSAFIALVMEKLRDKAFAAQ”, the protein production entry is given as “failed”. As for “MALEIKILDYGDIELESSFLVLGRDCGRTRRVLTLGFLILGGKYPVVVDTGYRSNQIMETLGMRGLQYHEHMIENQLARHGVRMGDVRFVCHTHLHIDHAGKDDLFPMNTTVVLNRKELEYSVSGLMHPQYPAPDIKHLIDRLHTKSALRFLDLEITGPIELMPGVYCDAANAHTEGSMNIIVETADGIATICGDVIYDFNDQIVTPFNEIHDWEPRTTGNHGTSKRAEKASIKKLLSNSRYLLPVHDRPAKIEGGMVVGRLHDQVPGPIVQSLPPRNWFPA”, the protein production entry is listed as “failed”. With “MALFIPTRLVSALALVGVSGLMLGCGSSGGGSNGTTASSAKAASSTPVAISSVAASSTAAVAGNIKLNQLGFLPESAKWAVVPAGVAASFTVINATTNAEVFSGNLSVAATWSASEESVKLADFSSVKTPGDYLLRVEGVNDSYPFTIANDVYSALTAASIKAFYFNRNSAELLATHAGMFARPPGHPDTQVLVHVSAASAARPAGTIISSPKGWYDAGDYNKYIVNSGIATYSLLAAYEHFPDIFNGQNLNIPESGDALPDLLNETLWNLEWMLSMQDPNDGGVYHKLTNKNFDGTVMPHQATSERYVVQKTTAAALDFAAVMATASRVVAQYESQLPGMSAKMLAAAESAWNWAVANPAITYKQPDDIKTGEYGDGNLADEFFWAAAELYITSKKDAYYTAMKPTETVATVPSWGDVRSLGWISLAHHRDNLTAVADKQLIANRIDGLAANLQSVWATSAYRVTMQKNDFVWGSNSVALGQAMMLVQGYRLNGKREYLDAAQAMLDYVLGRNATDMSFVTGYGDKSTLHPHHRPSEADGIVEPIPGFIAGGPQPGQQDKSGCSVSYPSNIAAKSYLDNWCSYASNEIAINWNAPLVYVSAAIQALTPK”, the protein production result is on record as “failed”. As for “MALHPTDYFRKERIFVDRETCIDNFRRFIQNSNNQDYNALFYYGIAGIGKSKLQHKLQNILNTEYPEMLWVSMDLENDTHRNVSTFLIALRNKIQKKCNVRFYKFNLAHAIFSKKSRPDIPLNKETYPMLKEDGFFYEILNSLNETAFGPFISIPVKRIVDIINQAPGNVRRHFGELPIDINKLESMEAHEIEKKLPGIFAADFTGSLGTNSRACIFIDTYEAIWKGWRGIGSFSEKDKWIRKCLIPNMPGVSWVICGRKQIKSLWIKDEQDWEMCMKEYPIEDLPEEYSEQFLKEYIEEEDIRSVIVKASEGVPCYLNLSVDTYEQVSRIKKPEVKDFPNTKIEVFEKFVKYLDNNEKRTLYILSAPNSWDRNLFKKLINEFNPTYSIYEFSDLIKYSFVKKITDEKFSLHQLMRKNLQEYQDPTYRKDVHLFLHEYYSNKIKDVDVRSITQEHEISLIEAYYHAREVLKFEDLGGWIAKYTEPFNEAGYWKTIYPMIEDFAEILKEKFGPDNIYYGIFVRKLAFLNEDRGKYNEAIFYYQQVLKIFEKNMGKKILENNDLVVDDHSIAMVTNDLANCYLSIGEYEKALTLQQNSLKTVQNKVNKDPLYIALLQQNIALTYQYLGQYNKAMELCQEALTVREACLGEEDLEVAKTAENLAVIHQQLGNYKEAFALAKRALNIREKKLGSKHPLVATNLSSLGVLCIIMGNLEEGLKYNQRAVKIAEERFEGDHISVAETLSNLGATYQYMLRYDDALEAYQRALNITEHSLGLENPKLVNILNNIAETYRKMENYEKALEFYQRALDIARNHLGKEHPTIALIMNNLGRLYMNTKEFDKAHTICQQALDIRGKTLGTDHVDFAITSLDLGIIYGCVGRRDYALPLLEHSLRIFEQKLGSDHIYTKNAKLVVDTLKESR”, the protein production result is listed as “failed”. With “MALILTFLGKSGVARTKIAIAAAKLLASQGKRVLLAGLAEPVLPLLLEQTLTPDPQQIAPNLEVVQFQSSVLLERNWEEVKKLEAQYLRTPIIKEVYGQELVVLPGMDSALALNAIREYDASGKYDAIVYDGTGDAFTLRMLGLPESLSWYVRRFRQLFVNSDLGKTIAESPLIQPLISSFFNVNWTADNFAQPTNQVNNFLDKGKEALADPKRVAAFLVTTADPLEVVSVRYLWGSAQQIGLTIGGVIQVSSQTEGDLSAEFTPLSVTVVPDVTKGDWQPLIDALPNFVEQAEQAPKPITIDTHNRQVRLFLPGFDKKQVKLTQYGPEVTVEAGDQRRNIFLPPALSGRPITGAKFQNNYLIISFLEHHHHHH” the entry was “not failed”. Consider “MALKEAHQPQTQPLWHQLGLVLAKHFEPQDAKAVLQLLRQEHEERLQKISLEHLEQLAQYLLAEEPHVEPAGERELEAKARP”, for which the protein production result is reported as “failed”.
